This assay concerns the target Full-length human NF1 isoform 2 (short isoform), recombinant (human) (UniProt P21359). Put plainly: cryo-EM structure.

For “Full-length human NF1 isoform 2 (short isoform), recombinant, P21359-2 1-2818”, the stoichiometry N was determined as 2.

The stoichiometry N is a count of units in the complex or per binding partner.

The values above are taken from publication PMC9945959.
